Measurements from patent publication US9658208B2, “Methods and G proteins for screening and identifying ligands of G protein-coupled receptors” (Fred Hutchinson Cancer Research Center, priority 2011, dated 2017).

Molecular target: T1, sweet receptor heterodimer (T1R2/T1R3) (Mus musculus, UniProt Q925D8+Q925I4)
T1 construct: expressed in transfected cells; host or cells: HEK-293
T1 sequence (Q925I4 20-843): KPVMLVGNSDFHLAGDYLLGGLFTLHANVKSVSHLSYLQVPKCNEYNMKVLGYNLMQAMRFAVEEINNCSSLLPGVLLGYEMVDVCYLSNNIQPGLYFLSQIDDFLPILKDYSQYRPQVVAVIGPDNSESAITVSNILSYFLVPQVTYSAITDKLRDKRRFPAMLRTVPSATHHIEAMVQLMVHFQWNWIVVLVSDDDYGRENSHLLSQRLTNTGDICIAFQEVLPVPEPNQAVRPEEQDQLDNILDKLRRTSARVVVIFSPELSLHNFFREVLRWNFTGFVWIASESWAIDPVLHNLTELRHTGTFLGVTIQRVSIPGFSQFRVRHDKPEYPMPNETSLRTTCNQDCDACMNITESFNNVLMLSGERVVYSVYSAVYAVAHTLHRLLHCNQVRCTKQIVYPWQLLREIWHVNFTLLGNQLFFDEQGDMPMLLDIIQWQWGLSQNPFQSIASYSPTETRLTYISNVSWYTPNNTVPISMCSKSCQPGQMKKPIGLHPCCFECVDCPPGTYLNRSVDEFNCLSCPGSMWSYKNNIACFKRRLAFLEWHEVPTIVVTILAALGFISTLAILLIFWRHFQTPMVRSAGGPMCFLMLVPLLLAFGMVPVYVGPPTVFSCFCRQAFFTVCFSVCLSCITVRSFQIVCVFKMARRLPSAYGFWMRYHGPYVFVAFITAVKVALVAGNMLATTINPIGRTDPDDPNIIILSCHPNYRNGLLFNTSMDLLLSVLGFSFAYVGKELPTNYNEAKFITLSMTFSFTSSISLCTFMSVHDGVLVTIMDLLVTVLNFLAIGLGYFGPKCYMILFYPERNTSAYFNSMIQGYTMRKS
T1 sequence (Q925D8 21-858): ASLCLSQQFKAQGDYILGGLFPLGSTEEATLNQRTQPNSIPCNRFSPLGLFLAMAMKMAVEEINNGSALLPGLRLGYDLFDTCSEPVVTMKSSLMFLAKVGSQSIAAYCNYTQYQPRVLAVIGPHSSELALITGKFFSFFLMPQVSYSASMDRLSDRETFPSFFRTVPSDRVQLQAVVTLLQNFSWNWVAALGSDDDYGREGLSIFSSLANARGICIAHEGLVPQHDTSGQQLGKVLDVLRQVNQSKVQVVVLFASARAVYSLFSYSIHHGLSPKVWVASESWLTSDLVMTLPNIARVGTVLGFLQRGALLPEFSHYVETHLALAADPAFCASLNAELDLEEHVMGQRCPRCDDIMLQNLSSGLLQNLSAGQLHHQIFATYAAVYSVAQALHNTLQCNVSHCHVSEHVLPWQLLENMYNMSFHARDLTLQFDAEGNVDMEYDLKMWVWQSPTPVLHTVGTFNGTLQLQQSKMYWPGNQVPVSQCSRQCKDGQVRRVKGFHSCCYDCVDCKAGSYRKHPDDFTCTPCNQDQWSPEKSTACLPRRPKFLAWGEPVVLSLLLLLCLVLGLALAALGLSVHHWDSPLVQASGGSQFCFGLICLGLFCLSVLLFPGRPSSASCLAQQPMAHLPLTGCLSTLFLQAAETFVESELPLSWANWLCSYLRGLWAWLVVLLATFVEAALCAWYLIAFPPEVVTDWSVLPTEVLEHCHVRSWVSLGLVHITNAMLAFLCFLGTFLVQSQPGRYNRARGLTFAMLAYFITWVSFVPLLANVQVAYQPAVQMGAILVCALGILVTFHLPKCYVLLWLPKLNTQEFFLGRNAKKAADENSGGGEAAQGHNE
Assay: CRE-SEAP reporter gene assay, coupling with sweet receptor
Assay type: cell-based
Settings: HEK-293 cells cotransfected with T1R2 and T1R3; 5 mM saccharin
Description: The GPCRs examined were those that couple with Gαi/Gαo subunits (serotonin 1b, neuropeptide Y1, leukotriene B4, and dopamine D4), Gαq (GNRH, UDP, and calcium-sensing receptors), and the orphan mammalian sweet taste receptor complex (T1R2 and T1R3) with unknown coupling preference. The Gαs-based chimeric G proteins examined in this example were Gαs-Gαi-5, Gαs-Gαt-13 (SEQ ID NO: 3), Gαs-Gαo-13 (SEQ ID NO: 4), Gαs-Gαi-13 (SEQ ID NO: 5), Gαs-Gαz-6 (SEQ ID NO: 18), Gαs-Gα15-13 (SEQ ID NO: 7), Gαs-Gαk-5 (SEQ ID NO: 2), and Gαs-Gαq-13 (SEQ ID NO: 8). The chimeric G protein constructs were prepared as described herein. For the coupling assay, HEK-293 cells were cotransfected with each of the Gαs-based chimeric G protein constructs of interest together with the CRE-SEAP reporter gene construct and a cDNA encoding the GPCR to be tested. The transfected cells were cultured in the presence or absence of a GPCR ligand and then assayed for SEAP activity.
Also tested was whether the chimeric G proteins disclosed herein can be used to detect the activation of GPCRs whose G protein coupling preference is unknown, as is the case with orphan GPCRs. […]
Following transfection, the cells were maintained for 48 hours in 200 ul serum free media containing GPCR ligand. […] Fluorescence was then measured using a CytoFluor 4000 multi well plate reader (Applied Biosystems).

B1: Gαs-Gαt-13: Gαs-based chimeric G protein, final 13 C-terminal amino acids substituted with those of Gαt (protein)
chain: MGCLGNSKTEDQRNEEKAQREANKKIEKQLQKDKQVYRATHRLLLLGAGESGKSTIVKQMRILHVNGFNGEGGEEDVPDYASNSDGEKATKVQDIKNNLKEAIETIVAAMSNLVPPVELANPENQFRVDYILSVMNVPNFDFPPEFYEHAKALWEDEGVRACYERSNEYQLIDCAQYFLDKIDVIKQADYVPSDQDLLRCRVLTSGIFETKFQVDKVNFHMFDVGGQRDERRKWIQCFNDVTAIIFVVASSSYNMVIREDNQTNRLQEALNLFKSIWNNRWLRTISVILFLNKQDLLAEKVLAGKSKIEDYFPEFARYTTPEDATPEPGEDPRVTRAKYFIRDEFLRISTASGDGRHYCYPHFTCAVDTENIRRVFNDCRDIIIKENLKDCGLF
modifications: Chimeric protein
notes: Gαs-based chimeric G protein, final 13 C-terminal amino acids substituted with those of Gαt
increase in SEAP activity: about two
